Our source for the IC50 and Kd values is the Immune Epitope Database (IEDB).

The pIC50 is the IC50 on a negative log10 scale, so that one unit is a factor of ten. A higher pIC50 goes with a small IC50. Usually pKd stands for −log10 of the Kd, conventionally taken in molar units.

pIC50, pKd: −log10 of the molar value.

Experiment [1] concerns the target HLA-B*15:01. In words: IEDB peptide-MHC binding, purified MHC/competitive/fluorescence; ≥ and ≤ were set here for values at or beyond the usual limits of such assays.
Experiment [2] concerns the target HLA-A*24:02. Described as above. The conditions noted are these: source organism: Zaire ebolavirus.
Experiment [3] deals with HLA-A*02:01. The description is as above. The conditions noted are these: source organism: Zaire ebolavirus.
In experiment [4] the target is HLA-B*45:01. Kind of experiment: IEDB peptide-MHC binding, purified MHC/competitive/radioactivity; filed as Kd, often an IC50 or EC50 that approximates it; ≥ and ≤ were set here for values at or beyond the usual limits of such assays.
Experiment [5] addresses HLA-B*40:01. The experiment is described as above.
The target of experiment [6] is HLA-B*44:02. The description is as above.
Experiment [7] deals with HLA-B*40:02. The description is as above.
Experiment [8] has as its target HLA-B*18:01. The description is as above.
Experiment [9] has as its target HLA-B*44:03. The description is as above.
The target in experiment [10] is HLA-B*58:01. Described as above.
Experiment [11] addresses HLA-B*53:01. The experiment is described as above. The conditions noted are these: source organism: Dengue virus 2 Jamaica/1409/1983.
Experiment [12] concerns the target HLA-B*35:01. The description is as above. The conditions noted are these: source organism: Dengue virus 2 Jamaica/1409/1983.
The target in experiment [13] is HLA-B*51:01. Described as above. The conditions noted are these: source organism: Dengue virus 2 Jamaica/1409/1983.
The target in experiment [14] is HLA-A*68:02. Described as above. The conditions noted are these: source organism: Dengue virus 2 Jamaica/1409/1983.
For experiment [15], the target named is HLA-B*48:01. Kind of experiment: IEDB peptide-MHC binding, purified MHC/direct/fluorescence; filed as Kd, often an IC50 or EC50 that approximates it; ≥ and ≤ were set here for values at or beyond the usual limits of such assays. Particulars: source organism: West Nile virus.
Experiment [16] concerns the target HLA-B*58:01. The experiment is described as above. The conditions noted are these: source organism: Ebola virus - Eckron (Zaire, 1976).
In experiment [17] the target is HLA-A*02:16. The description is as above. The conditions noted are these: source organism: Zaire ebolavirus.
Experiment [18] deals with HLA-A*02:11. Described as above. Particulars: source organism: Zaire ebolavirus.
Experiment [19] concerns the target HLA-A*68:02. Described as above. The conditions noted are these: source organism: Zaire ebolavirus.
Experiment [20] concerns the target HLA-A*02:12. The experiment is described as above. The conditions noted are these: source organism: Zaire ebolavirus.
In experiment [21] the target is HLA-A*02:03. The experiment is described as above. Particulars: source organism: Zaire ebolavirus.
The target in experiment [22] is HLA-A*02:19. The experiment is described as above. Particulars: source organism: Zaire ebolavirus.
For experiment [23], the target named is HLA-A*03:01. The description is as above. The conditions noted are these: source organism: Zaire ebolavirus.
Experiment [24] deals with HLA-A*26:01. In words: IEDB peptide-MHC binding, purified MHC/competitive/fluorescence; filed as Kd, often an IC50 or EC50 that approximates it; ≥ and ≤ were set here for values at or beyond the usual limits of such assays. The conditions noted are these: source organism: Zaire ebolavirus.
Experiment [25] concerns the target HLA-B*15:17. The experiment is described as above. Particulars: source organism: Zaire ebolavirus.
Experiment [26] deals with HLA-B*15:01. Described as above. Particulars: source organism: Zaire ebolavirus.
The target in experiment [27] is HLA-B*46:01. The description is as above. The conditions noted are these: source organism: Zaire ebolavirus.
Experiment [28] addresses HLA-A*69:01. The experiment is described as above. Particulars: source organism: Zaire ebolavirus.
Experiment [29] concerns the target HLA-B*51:01. The description is as above. Particulars: source organism: Zaire ebolavirus.
For experiment [30], the target named is HLA-B*39:01. The description is as above. Particulars: source organism: Zaire ebolavirus.
The target in experiment [31] is HLA-B*18:01. Described as above. Particulars: source organism: Zaire ebolavirus.
Experiment [32] concerns the target HLA-B*27:03. The description is as above. The conditions noted are these: source organism: Zaire ebolavirus.
The target of experiment [33] is HLA-A*02:01. The experiment is described as above. Particulars: source organism: Zaire ebolavirus.
The mark [34] stands for this setting: source organism: Zaire ebolavirus.
[35] abbreviates: source organism: Mammarenavirus brazilense.
[36] abbreviates: source organism: SARS coronavirus Tor2.
Where [37] appears, read: source organism: Mammarenavirus whitewaterense.
[38] abbreviates: source organism: Mammarenavirus machupoense.
Where [39] appears, read: source organism: Mammarenavirus juninense.
[40] abbreviates: source organism: Mammarenavirus lassaense.

With FVTLDGQQF, the values for the negative-log IC50 (pIC50) in experiment [1] (setting [34]), in [2] and in experiment [3] were 4.21, 4.75 and at most 3.92, respectively.

In the case of PEDQGNPIVL, the negative-log Kd (pKd) in [4] (setting [35]) is at most 4.15; in experiment [5] (setting [35]) it was at most 4.51; in experiment [6] (setting [35]), at most 4.15; in experiment [7] (setting [35]), 4.98; in experiment [8] (setting [35]), at most 4.41; in [9] (setting [35]), at most 4.15.

For SYFTNMFATWSP, the pIC50 in experiment [1] (source organism: Homo sapiens) is 5.24.

For the sequence TEHSWNADL, the negative-log Kd (pKd) in experiment [4] (setting [36]) is 6.48; in [5] (setting [36]), 7.47; in experiment [6] (setting [36]), 6.90; in experiment [7] (setting [36]), 6.88; in [8] (setting [36]), 5.08; in experiment [9] (setting [36]) it was 6.86.

With LASAILNAHE, in [10] (source organism: Dengue virus 4 Philippines/H241/1956), the negative-log Kd (pKd) is 6.01.

With TEAFEKMVSL, the pKd in [4] (setting [36]) is 5.35; in experiment [5] (setting [36]), 8.45; in experiment [6] (setting [36]), 5.72; in experiment [7] (setting [36]), 7.46; in experiment [8] (setting [36]), 5.81; in experiment [9] (setting [36]) it was 5.24.

For VEYYPLLFIT, the pKd in experiment [4] (setting [36]) was 6.25; in [5] (setting [36]), 5.29; in experiment [6] (setting [36]), at most 4.21; in experiment [7] (setting [36]), 7.90; in [8] (setting [36]) it was 5.08; in experiment [9] (setting [36]) it was 5.08.

AEQSRIFEEL: the negative-log Kd (pKd) in experiment [4] (setting [37]) is 6.69; in experiment [5] (setting [37]), 4.99; in experiment [6] (setting [37]), 7.24; in [7] (setting [37]) it was 7.77; in experiment [8] (setting [37]), at most 4.68; in experiment [9] (setting [37]) it was 6.37.

As for PDVGVLFGL, the pKd in experiment [4] (setting [38]) is at most 4.60; in experiment [5] (setting [38]), at most 4.12; in [6] (setting [38]), at most 4.11; in experiment [7] (setting [38]), at most 4.64; in experiment [8] (setting [38]), at most 4.36; in experiment [9] (setting [38]), at most 4.11.

On to SEGVPDLLV, for which the pKd in experiment [4] (setting [36]) is 4.86; in [5] (setting [36]), at most 4.54; in [6] (setting [36]), at most 4.43; in experiment [7] (setting [36]) it was at most 4.43; in experiment [8] (setting [36]), at most 4.11; in [9] (setting [36]), at most 4.68.

With RTIHHASAP, the pIC50 in experiment [1] (setting [34]) was 4.44; in [3] it was at most 3.21.

Consider WMASVEPHW, for which, in experiment [10] (source organism: Dengue virus 1 Brazil/97-11/1997), the pKd was 7.88.

For the sequence EEPAALLPL, the pKd in experiment [4] (setting [38]) was at most 4.63; in experiment [5] (setting [38]), 5.15; in [6] (setting [38]) it was at most 4.40; in [7] (setting [38]) it was 7.24; in experiment [8] (setting [38]), 5.25; in experiment [9] (setting [38]), at most 4.39.

Regarding MAAILAYTI, the negative logarithm of the Kd (pKd) in experiment [11] is 7.88; in experiment [12], 5.76; in experiment [10] (source organism: Dengue virus 2 Jamaica/1409/1983), 8.90; in experiment [13], 8.00; in experiment [14], 8.33.

Take HDLPLLCTL: the pKd is at most 4.13 in experiment [4] (setting [39]); 4.79 in [5] (setting [39]); 5.01 in [6] (setting [39]); 8.07 in experiment [7] (setting [39]); 5.77 in experiment [8] (setting [39]); 4.72 in [9] (setting [39]).

On to REMLAHAEET, for which the negative logarithm of the Kd (pKd) is 6.82 in experiment [4] (setting [36]); 6.04 in experiment [5] (setting [36]); 6.05 in experiment [6] (setting [36]); 7.17 in [7] (setting [36]); 5.99 in experiment [8] (setting [36]); 6.64 in experiment [9] (setting [36]).

Consider GRLVTVNPF, for which the negative logarithm of the Kd (pKd) in experiment [15] was at most 4.70.

On to VELKHFFFA, for which the negative logarithm of the Kd (pKd) in experiment [4] (setting [36]) was 7.80; in experiment [5] (setting [36]), at most 4.53; in [6] (setting [36]), 4.81; in experiment [7] (setting [36]) it was 6.99; in experiment [8] (setting [36]), 5.77; in experiment [9] (setting [36]) it was 5.58.

In turn, LIVKTVLDH showed a negative logarithm of the IC50 (pIC50) in experiment [1] (setting [34]) of at most 4.13.

For the sequence KEAYCQEFLL, the pKd in experiment [4] (setting [40]) was 5.18; in [5] (setting [40]), 4.99; in experiment [6] (setting [40]) it was 5.90; in experiment [7] (setting [40]) it was 7.47; in experiment [8] (setting [40]), at most 4.34; in experiment [9] (setting [40]), 5.30.

On to GETALALLL, for which the negative logarithm of the Kd (pKd) in [4] (setting [36]) was 6.35; in [5] (setting [36]), 8.91; in experiment [6] (setting [36]), 7.50; in experiment [7] (setting [36]), 8.11; in [8] (setting [36]) it was at most 4.64; in experiment [9] (setting [36]), 7.88.

As for WLQKIPLQW, the pKd in experiment [16] is 6.16; in experiment [17] it was at most 4.70; in [18], at most 4.70; in [19], at most 4.70; in experiment [20], at most 4.70; in experiment [21], at most 4.70. Further, the pKd in experiment [22], in experiment [23], in [24], in [25], in experiment [26] and in experiment [27] was at most 4.70 throughout. Further, the negative-log Kd (pKd) in experiment [28], in experiment [29], in experiment [30], in experiment [31], in experiment [32] and in experiment [33] was at most 4.70 each time.
